# Assay results: US20150344570A1 (published 2015)
# Where a chain is given by its changes, count along the chain named.
# T1: FcγRIIa R (human, UniProt P12318 34-217)
# T1 construct: extracellular domain; also called FcgRIIa R type; 2aR; not shown: His tag at the C terminus
# T1 sequence (looked up): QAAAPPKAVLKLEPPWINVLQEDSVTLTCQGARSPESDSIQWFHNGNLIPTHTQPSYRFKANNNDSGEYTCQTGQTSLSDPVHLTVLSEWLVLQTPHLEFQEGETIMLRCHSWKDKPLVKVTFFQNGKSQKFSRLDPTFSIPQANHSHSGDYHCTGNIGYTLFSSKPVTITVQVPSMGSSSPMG
# T2: FcγRIIb (human, UniProt P31994 43-217)
# T2 construct: extracellular domain; also called FcgRIIb; 2b; not shown: His tag at the C terminus
# T2 sequence (looked up): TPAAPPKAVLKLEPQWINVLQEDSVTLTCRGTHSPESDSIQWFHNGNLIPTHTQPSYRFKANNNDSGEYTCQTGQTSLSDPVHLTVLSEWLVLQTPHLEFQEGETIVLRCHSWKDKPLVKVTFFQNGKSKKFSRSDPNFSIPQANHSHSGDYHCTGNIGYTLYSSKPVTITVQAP
# T3: FcγRIIa H (human, UniProt P12318 34-217)
# T3 construct: extracellular domain; also called FcγRIIa type H; 2aH
# T3 sequence (looked up): T1 sequence (looked up) with R134H
# T4: FcγRIIb (human, UniProt P31994 43-217)
# T4 construct: extracellular domain; also called 2b; FcgRIIb
# T4 sequence (looked up): T2 sequence (looked up)
# B1: GpH7-A5/GpH7-B3 variant S267_08L/GpL16-k0 (antibody, human IgG1, kappa)
# heavy 1: not shown
# heavy 2: not shown
# light: DIVMTQSPLSLPVTPGEPASISCQASESLVHSNRNTYLHWYLQKPGQSPQLLIYKVSNRFSGVPDRFSGSGSGTDFTLKISRVEAEDVGVYYCSQNTHVPPTFGQGTKVEIERTVAAPSVFIFPPSDEQLKSGTASVVCLLNNFYPREAKVQWKVDNALQSGNSQESVTEQDSKDSTYSLSSTLTLSKADYEKHKVYACEVTHQGLSSPVTKSFNRGEC
# notes: Heterodimerized anti-glypican-3 IgG1; mutation in the GpH7-B3 chain only; also called He Ab
# B2: GpH7-A5/GpH7-B3 variant A327_18N/GpL16-k0 (antibody, human IgG1, kappa)
# heavy 1: not shown
# heavy 2: not shown
# light: B1 light
# notes: as for B1
# B3: GpH7-A5/GpH7-B3 variant A327_07I/GpL16-k0 (antibody, human IgG1, kappa)
# heavy 1: not shown
# heavy 2: not shown
# light: B1 light
# notes: as for B1
# B4: GpH7-A5/GpH7-B3 variant G236_09D/GpL16-k0 (antibody, human IgG1, kappa)
# heavy 1: not shown
# heavy 2: not shown
# light: B1 light
# notes: as for B1
# B5: GpH7-A5/GpH7-B3 variant A327_10E/GpL16-k0 (antibody, human IgG1, kappa)
# heavy 1: not shown
# heavy 2: not shown
# light: B1 light
# notes: as for B1
# B6: GpH7-A5/GpH7-B3 variant G237_20W/GpL16-k0 (antibody, human IgG1, kappa)
# heavy 1: not shown
# heavy 2: not shown
# light: B1 light
# notes: as for B1
# B7: GpH7-A5/GpH7-B3 variant A327_12R/GpL16-k0 (antibody, human IgG1, kappa)
# heavy 1: not shown
# heavy 2: not shown
# light: B1 light
# notes: as for B1
# B8: GpH7-A5/GpH7-B3 variant G237_09D/GpL16-k0 (antibody, human IgG1, kappa)
# heavy 1: not shown
# heavy 2: not shown
# light: B1 light
# notes: as for B1
# B9: GpH7-A5/GpH7-B3 variant D270_05P/GpL16-k0 (antibody, human IgG1, kappa)
# heavy 1: not shown
# heavy 2: not shown
# light: B1 light
# notes: as for B1
# B10: GpH7-A5/GpH7-B3 variant A327_09D/GpL16-k0 (antibody, human IgG1, kappa)
# heavy 1: not shown
# heavy 2: not shown
# light: B1 light
# notes: as for B1
# B11: GpH7-A5/GpH7-B3 variant H268_02A/GpL16-k0 (antibody, human IgG1, kappa)
# heavy 1: not shown
# heavy 2: not shown
# light: B1 light
# notes: as for B1
# B12: GpH7-A5/GpH7-B3 variant S298_07I/GpL16-k0 (antibody, human IgG1, kappa)
# heavy 1: not shown
# heavy 2: not shown
# light: B1 light
# notes: Heterodimerized anti-glypican-3 IgG1 (He Ab); mutation in the B3 H chain only; also called He Ab
# B13: GpH7-A5/GpH7-B3 variant Y300_01G/GpL16-k0 (antibody, human IgG1, kappa)
# heavy 1: not shown
# heavy 2: not shown
# light: B1 light
# notes: as for B12
# B14: GpH7-A5/GpH7-B3 variant S298_18N/GpL16-k0 (antibody, human IgG1, kappa)
# heavy 1: not shown
# heavy 2: not shown
# light: B1 light
# notes: as for B12
# B15: GpH7-A5/GpH7-B3 variant S298_16H/GpL16-k0 (antibody, human IgG1, kappa)
# heavy 1: not shown
# heavy 2: not shown
# light: B1 light
# notes: as for B12
# B16: GpH7-A5/GpH7-B3 variant Y300_03V/GpL16-k0 (antibody, human IgG1, kappa)
# heavy 1: not shown
# heavy 2: not shown
# light: B1 light
# notes: as for B12
# B17: GpH7-A5/GpH7-B3 variant S298_20W/GpL16-k0 (antibody, human IgG1, kappa)
# heavy 1: not shown
# heavy 2: not shown
# light: B1 light
# notes: as for B12
# B18: GpH7-A5/GpH7-B3 variant Y300_11K/GpL16-k0 (antibody, human IgG1, kappa)
# heavy 1: not shown
# heavy 2: not shown
# light: B1 light
# notes: as for B12
# B19: GpH7-A5/GpH7-B3 variant S298_19Q/GpL16-k0 (antibody, human IgG1, kappa)
# heavy 1: not shown
# heavy 2: not shown
# light: B1 light
# notes: as for B12
# B20: GpH7-A5/GpH7-B3 variant Y300_07I/GpL16-k0 (antibody, human IgG1, kappa)
# heavy 1: not shown
# heavy 2: not shown
# light: B1 light
# notes: as for B12
# B21: GpH7-A5/GpH7-B3 variant Y300_02A/GpL16-k0 (antibody, human IgG1, kappa)
# heavy 1: not shown
# heavy 2: not shown
# light: B1 light
# notes: as for B12
# B22: GpH7-A5/GpH7-B3 variant Y300_08L/GpL16-k0 (antibody, human IgG1, kappa)
# heavy 1: not shown
# heavy 2: not shown
# light: B1 light
# notes: as for B12
# B23: GpH7-A5/GpH7-B3 variant S298_14T/GpL16-k0 (antibody, human IgG1, kappa)
# heavy 1: not shown
# heavy 2: not shown
# light: B1 light
# notes: as for B12
# B24: GpH7-A5/GpH7-B3 variant Y300_06M/GpL16-k0 (antibody, human IgG1, kappa)
# heavy 1: not shown
# heavy 2: not shown
# light: B1 light
# notes: as for B12
# B25: GpH7-A5/GpH7-B3 variant S298_10E/GpL16-k0 (antibody, human IgG1, kappa)
# heavy 1: not shown
# heavy 2: not shown
# light: B1 light
# notes: as for B12
# B26: GpH7-A5/GpH7-B3 variant Y300_05P/GpL16-k0 (antibody, human IgG1, kappa)
# heavy 1: not shown
# heavy 2: not shown
# light: B1 light
# notes: Heterodimerized IgG1 antibody; alteration in the GpH7-B3 chain only; also called He Ab
# B27: GpH7-A5/GpH7-B3 variant L328_11K/GpL16-k0 (antibody, human IgG1, kappa)
# heavy 1: not shown
# heavy 2: not shown
# light: B1 light
# notes: as for B1
# B28: GpH7-A5/GpH7-B3 variant L328_12R/GpL16-k0 (antibody, human IgG1, kappa)
# heavy 1: not shown
# heavy 2: not shown
# light: B1 light
# notes: as for B1
# B29: GpH7-A5/GpH7-B3 variant A327_12R/GpL16-k0 (antibody, human IgG1, kappa)
# heavy 1: not shown
# heavy 2: not shown
# light: B1 light
# notes: as for B1
# Biological target: T1, FcγRIIa R
# Experiment: SPR, relative to GpH7-A5/GpH7-B3/GpL16-k0
row,He/Con_2aR [control = 100],Binder
1,72.1,B1
2,88.9,B2
3,98,B3
4,106,B4
5,110,B5
6,138,B6
7,6,B7
8,156,B8
9,7.5,B9
10,124,B10
11,133,B11

# Biological target: T2, FcγRIIb
# Experiment: SPR, relative to GpH7-A5/GpH7-B3/GpL16-k0
row,He/Con_2b [control = 100],Binder
1,109,B1
2,113,B2
3,127,B3
4,167,B4
5,140,B5
6,193,B6
7,9,B7
8,223,B8
9,13.9,B9
10,172,B10
11,167,B11

# Biological target: T3, FcγRIIa H
# Experiment: ratio of He/Con_2aH to He/Con_2b (FcγRIIb); SPR
row,He_2aH/2b (IIaH/IIb ratio),Binder
1,1.23,B12
2,1.54,B13
3,1.28,B14
4,1.29,B15
5,1.33,B16
6,1.21,B17
7,1.3,B18
8,1.24,B19
9,1.45,B20
10,1.35,B21
11,1.47,B22
12,1.26,B23
13,1.24,B24
14,1.22,B25

# Biological target: T5, FcγRIIIa extracellular domain with C-terminal His tag (human, UniProt P08637 17-208)
# T5 construct: extracellular domain; also called FcgRIIIa; 3a; not shown: His tag at the C terminus
# Experiment: SPR (Biacore); He/Con_3a divided by He/Con_2b (FcγRIIb)
# T5 sequence (P08637 17-208): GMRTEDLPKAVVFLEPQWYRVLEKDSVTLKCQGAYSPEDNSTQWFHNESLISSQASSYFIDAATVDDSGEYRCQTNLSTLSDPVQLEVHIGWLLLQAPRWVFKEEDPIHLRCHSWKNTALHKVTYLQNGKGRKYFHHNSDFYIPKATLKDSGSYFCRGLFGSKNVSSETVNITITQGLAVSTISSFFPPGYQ
row,He_3a/2b (IIIa/IIb) [ratio],Binder
1,0.38,B26

# Biological target: T1, FcγRIIa R
# Experiment: SPR; He/Con_2aR divided by He/Con_2b (FcγRIIa R over FcγRIIb)
row,He_2aR/2b [ratio],Binder
1,0.66,B1
2,0.79,B2
3,0.77,B3
4,0.64,B4
5,0.78,B5
6,0.71,B6
7,0.67,B7
8,0.7,B8
9,0.54,B9
10,0.72,B10
11,0.8,B11

# Biological target: T6, FcγRIIIa extracellular domain with C-terminal His tag (human, UniProt P08637 17-208)
# T6 construct: extracellular domain; also called FcgRIIIa; 3a
# Experiment: SPR (Biacore); He/Con_3a divided by He/Con_2b (FcγRIIIa against FcγRIIb)
# Description: (§1) The heterodimerized antibodies He Abs in which one of the H chains was introduced with an alteration were assayed for their binding activities to each activating FcγR and inhibitory FcγR according to the method described in Example 4. […] The activating FcγRs in FIGS. 26, 27, 28, and 29 are FcγRIa, FcγRIIa (R), FcγRIIa (H), and FcγRIIIa, respectively.
# (§2) Analysis of interaction between objective antibody and the FcγR was carried out using Biacore T100 (GE Healthcare). HBS-EP+ (GE Healthcare) was used as the running buffer, and the measurement temperature was set to 25° C. Chips produced by immobilizing the antigen peptide by the amine coupling method to a Series S Sencor Chip CM5 (GE Healthcare), or alternatively, chips produced by allowing preliminarily biotinylated antigen peptides to interact with and immobilize onto a Series S Sensor Chip SA (certified) (GE Healthcare) were used. Antibodies of interest were captured onto an antigen peptide-immobilized chip, and allowed to interact to each FcγR diluted with running buffer. To regenerate and repeatedly use the chip, the antibodies captured on the chip were washed off by reacting 10 mM glycine-HCl, pH 1.5.
# T6 sequence (P08637 17-208): as above
row,He_3a/2b (IIIa/IIb) [ratio],Binder
1,4.46,B27
2,3.53,B28
3,2.15,B29

# Biological target: T3, FcγRIIa H
# Experiment: SPR (Biacore), captured antibody, FcγR as analyte; GpH7-A5/GpH7-B3/GpL16-k0 = 100
# Description: as §1, §2
row,He/Con_2aH (relative binding) [%],Binder
1,86.9,B12
2,74.4,B13
3,61.6,B14
4,82.1,B15
5,98,B16
6,49.9,B17
7,66.9,B18
8,91,B19
9,108,B20
10,93.5,B21
11,108,B22
12,98.5,B23
13,105,B24
14,58,B25

# Biological target: T4, FcγRIIb
# Experiment: as above
# Description: as §1, §2
row,He/Con_2b (relative binding) [%],Binder
1,70.6,B12
2,48.4,B13
3,48.1,B14
4,63.5,B15
5,73.9,B16
6,41.1,B17
7,51.6,B18
8,73.3,B19
9,74.5,B20
10,69.2,B21
11,73.6,B22
12,77.9,B23
13,84.3,B24
14,47.6,B25

# Biological target: T5, FcγRIIIa extracellular domain with …
# Experiment: SPR (Biacore), FcγR as analyte over captured antibody; GpH7-A5/GpH7-B3/GpL16-k0 = 100
# Description: as §1, §2
row,He/Con_3a,Binder
1,2.8 % of control,B26

# Biological target: T6, FcγRIIIa extracellular domain with …
# Experiment: SPR (Biacore), antibody captured on antigen peptide chip, FcγR as analyte; GpH7-A5/GpH7-B3/GpL16-k0 = 100
# Description: as §1, §2
row,He/Con_3a (relative binding activity),Binder
1,33.5 % of control,B27
2,32.7 % of control,B28
3,19.3 % of control,B29
